Assay results as given in patent publication US20190330336A1.

What was measured:
[1] = biological target: HIS-tagged (ACRO) or biotinylated recombinant human LAG3 protein (human) (UniProt P18627); experiment: FACS competition: antibody inhibits rhLAG3 binding to MHCII on DAUDI cells
[2] = biological target: human LAG3-Fc, R&D Systems #2319-L3 (human) (UniProt P18627); experiment: SPR (Biacore), antibody captured on anti-Flag chip, human LAG3-Fc analyte, 25 C, 1:1 fit
Sequence of human LAG3-Fc, R&D Systems #2319-L3 (human) (P18627 23-450): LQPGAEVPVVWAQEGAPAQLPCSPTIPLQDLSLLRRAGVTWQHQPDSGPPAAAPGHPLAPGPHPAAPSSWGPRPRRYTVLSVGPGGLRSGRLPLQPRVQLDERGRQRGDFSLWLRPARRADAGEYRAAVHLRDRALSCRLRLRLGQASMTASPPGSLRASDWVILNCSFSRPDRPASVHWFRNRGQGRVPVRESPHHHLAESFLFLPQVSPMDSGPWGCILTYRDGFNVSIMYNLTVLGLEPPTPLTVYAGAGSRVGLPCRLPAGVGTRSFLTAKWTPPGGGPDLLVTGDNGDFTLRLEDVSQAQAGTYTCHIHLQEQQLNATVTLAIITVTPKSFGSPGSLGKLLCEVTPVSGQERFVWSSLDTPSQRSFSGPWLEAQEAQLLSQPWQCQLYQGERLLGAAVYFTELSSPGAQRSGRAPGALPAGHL

Sequence of HIS-tagged (ACRO) or biotinylated recombinant human LAG3 protein (human) (P18627 23-450 limits assumed): as the sequence (P18627 23-450) above

B1: SRP1627-A02 (scFv, from a related filing, V domains shown, part only)
VH: QVQLVQSGAEVKKPGSSVKVSCKASGFNINDYFMHWVRQAPGQGLEWIARIDPWNGDTEYAPKFQGRVTITADESTSTAYMELSSLRSEDTAVYYCGMSDALDYWGQGTLVTVSS
VL: DVVMTQSPLSLPVTLGQPASISCKSSQSLLDSDGKTYLNWFQQRPGQSPRRLIYLVSKLDSGVPDRFSGSGSGTDFTLKISRVEAEDVGVYYCSHGNPVPQTFGQGTKVEIK
[1]
  IC50: 0.0017 µM
[2]
  Kd: 0.0433 µM
  koff: 0.071 s⁻¹
  kon: 1.64e+06 M⁻¹ s⁻¹
